Data taken from publication PMC4207562, “Study of the Structure-Function-Stability Relationships in Yeast D-amino Acid Oxidase: Hydrophobization of Alpha-Helices” (Acta Naturae, 2014).
Where a chain is given by its changes, count along the chain named. In names and notes the source's numbering stands.

What was measured:
Details in all cases: 50 mM potassium phosphate pH 8.0, 30 °C, air-saturated
[1] = substrate: CC(C)C[C@@H](N)C(=O)O; test: purified protein
[2] = substrate: C[C@@H](N)C(=O)O; test: purified protein
[3] = substrate: C[C@H](O)[C@@H](N)C(=O)O; test: purified protein
[4] = substrate: N[C@H](CO)C(=O)O; test: purified protein
[5] = substrate: N[C@H](Cc1ccccc1)C(=O)O; test: purified protein
[6] = substrate: CC(C)[C@@H](N)C(=O)O; test: purified protein
[7] = substrate: N[C@H](Cc1c[nH]c2ccccc12)C(=O)O; test: peroxidase/ABTS coupled assay, A414; format: biochemical, Trigonopsis variabilis
From the text: (§1) peroxidase/ABTS coupled assay, A414 on TvDAAO

[8] = substrate: CSCC[C@@H](N)C(=O)O; test: peroxidase/ABTS coupled assay, A414; format: biochemical, Trigonopsis variabilis
From the text: as §1

[9] = substrate: N[C@H](Cc1ccc(O)cc1)C(=O)O; test: peroxidase/ABTS coupled assay, A414; format: biochemical, Trigonopsis variabilis
From the text: as §1

[10] = substrate: NC(=O)C[C@@H](N)C(=O)O; test: peroxidase/ABTS coupled assay, A414; format: biochemical, Trigonopsis variabilis
From the text: as §1

[11] = substrate: NCCCC[C@@H](N)C(=O)O; test: peroxidase/ABTS coupled assay, A414; format: biochemical, Trigonopsis variabilis
From the text: as §1

B1: TvDAAO (Trigonopsis variabilis) (protein)
chain: MAKIVVIGAGVAGLTTALQLLRKGHEVTIVSEFTPGDLSIGYTSPWAGANWLTFYDGGKLADYDAVSYPILRELARSSPEAGIRLISQRSHVLKRDLPKLEVAMSAICQRNPWFKNTVDSFEIIEDRSRIVHDDVAYLVEFRSVCIHTGVYLNWLMSQCLSLGATVVKRRVNHIKDANLLHSSGSRPDVIVNCSGLFARFLGGVEDKKMYPIRGQVVLVRNSLPFMASFSSTPEKENEDEALYIMTRFDGTSIIGGCFQPNNWSSEPDPSLTHRILSRALDRFPELTKDGPLDIVRECVGHRPGREGGPRVELEKIPGVGFVVHNYGAAGAGYQSSYGMADEAVSYVERALTRPNL
notes: recombinant tvdaao gene in pET-33b(+) based plasmid, E. coli BL21(DE3) CodonPlus/pLysS; MonoQ purified; FAD homodimer; no tag stated
How did the Km [1] turn out when B1 was run?
Its Km is 780 ± 20 µM.

And the kcat [1]?
Its kcat is 29.1 s⁻¹.

And the kcat/Km [1]?
The kcat/Km was 37300 M⁻¹ s⁻¹.

What about the Km [2] of the same protein?
Its Km is 16700 ± 700 µM.

What about the kcat [2] of the same protein?
Its kcat is 109 s⁻¹.

And the kcat/Km [2]?
The kcat/Km was 6500 M⁻¹ s⁻¹.

And the Km [3]?
Its Km is 11100 ± 800 µM.

What about the kcat [3] of the same protein?
The kcat was 1.75 s⁻¹.

And the kcat/Km [3]?
The kcat/Km was 160 M⁻¹ s⁻¹.

What about the Km [4] of the same protein?
The Km was 36600 ± 3300 µM.

And the kcat [4]?
Its kcat is 20.5 s⁻¹.

And the kcat/Km [4]?
The kcat/Km was 560 M⁻¹ s⁻¹.

And the Km [5]?
Its Km is 370 ± 40 µM.

What about the kcat [5] of the same protein?
Its kcat is 27.2 s⁻¹.

What about the kcat/Km [5] of the same protein?
Its kcat/Km is 73900 M⁻¹ s⁻¹.

What about the Km [6] of the same protein?
Its Km is 14400 ± 1200 µM.

And the kcat [6]?
Its kcat is 85.3 s⁻¹.

And the kcat/Km [6]?
The kcat/Km was 5900 M⁻¹ s⁻¹.

And the Km [7]?
Its Km is 490 ± 40 µM.

And the kcat [7]?
Its kcat is 42.4 ± 1.4 s⁻¹.

And the kcat/Km [7]?
Its kcat/Km is 86500 M⁻¹ s⁻¹.

What about the Km [8] of the same protein?
Its Km is 460 ± 30 µM.

And the kcat [8]?
The kcat was 80.5 ± 0.8 s⁻¹.

And the kcat/Km [8]?
The kcat/Km was 175000 M⁻¹ s⁻¹.

What about the Km [9] of the same protein?
The Km was 450 ± 60 µM.

What about the kcat [9] of the same protein?
The kcat was 22.5 ± 1.9 s⁻¹.

And the kcat/Km [9]?
The kcat/Km was 50000 M⁻¹ s⁻¹.

And the Km [10]?
The Km was 22600 ± 1500 µM.

What about the kcat [10] of the same protein?
Its kcat is 62.4 ± 2 s⁻¹.

And the kcat/Km [10]?
Its kcat/Km is 2800 M⁻¹ s⁻¹.

What about the Km [11] of the same protein?
The Km was 29300 ± 3400 µM.

What about the kcat [11] of the same protein?
Its kcat is 3.54 ± 0.21 s⁻¹.

What about the kcat/Km [11] of the same protein?
The kcat/Km was 120 M⁻¹ s⁻¹.

B2: TvDAAO (Trigonopsis variabilis; S67A) (protein)
chain: B1 chain with S67A
notes: as for B1
What does the source list for B2?
Km [1]: 340 ± 20 µM; kcat [1]: 31.4 s⁻¹; kcat/Km [1]: 93100 M⁻¹ s⁻¹; Km [8]: 1350 ± 40 µM; kcat [8]: 104 ± 3 s⁻¹; kcat/Km [8]: 77400 M⁻¹ s⁻¹

B3: TvDAAO (Trigonopsis variabilis; S105A) (protein)
chain: B1 chain with S105A
What does the source list for B3?
Km [1]: 280 ± 20 µM; kcat [1]: 30.4 s⁻¹; kcat/Km [1]: 110000 M⁻¹ s⁻¹; Km [5]: 260 ± 20 µM; kcat [5]: 32.3 s⁻¹; kcat/Km [5]: 124000 M⁻¹ s⁻¹

B4: TvDAAO (Trigonopsis variabilis; S77A) (protein)
chain: B1 chain with S77A
notes: as for B1
What does the source list for B4?
Km [9]: 6500 ± 700 µM; kcat [9]: 12.4 ± 0.8 s⁻¹; kcat/Km [9]: 1900 M⁻¹ s⁻¹; Km [10]: 4700 ± 700 µM; kcat [10]: 17.2 ± 1 s⁻¹; kcat/Km [10]: 3700 M⁻¹ s⁻¹

B5: TvDAAO (Trigonopsis variabilis; S277A) (protein)
chain: B1 chain with S277A
B5 was tested. Which Km [1] did it give?
Its Km is 150 ± 20 µM.

And the kcat [1]?
The kcat was 12 s⁻¹.

And the kcat/Km [1]?
The kcat/Km was 80000 M⁻¹ s⁻¹.

B6: TvDAAO (Trigonopsis variabilis; S336A) (protein)
chain: B1 chain with S336A
Which results are given for B6?
Km [1]: 70 ± 10 µM; kcat [1]: 5 s⁻¹; kcat/Km [1]: 76400 M⁻¹ s⁻¹

B7: TvDAAO (Trigonopsis variabilis; S335A) (protein)
chain: B1 chain with S335A
notes: as for B1
Which Km [8] does the source give for B7 here?
The Km was 4600 ± 200 µM.

And the kcat [8]?
Its kcat is 45.9 ± 1.1 s⁻¹.

And the kcat/Km [8]?
Its kcat/Km is 9900 M⁻¹ s⁻¹.
